In patent US20230227576A1 (published 2023):

Biological target: carcinoembryonic antigen (CEA) (Homo sapiens (Human), UniProt P06731)
Experiment: cell-based or functional assay

B1: MFE23 CD28(IEV) truncated CoStAR (CAR)
chain: QVKLQQSGAELVRSGTSVKLSCTASGFNIKDSYMHWLRQGPEQGLEWIGWIDPENGDTEYAPKFQGKATFTTDTSSNTAYLQLSSLTSEDTAVYYCNEGTPTGPYYFDYWGQGTTVTVSSGGGGSGGGGSGGGGSENVLTQSPAIMSASPGEKVTITCSASSSVSYMHWFQQKPGTSPKLWIYSTSNLASGVPARFSGSGSGTSYSLTISRMEAEDAATYYCQQRSSYPLTFGAGTKLELKRIEVMYPPPYLDNEKSNGTIIHVKGKHLCPSPLFPGPSKPFWVLVVVGGVLACYSLLVTVAFIIFWVRSKRSRLLHSDYMNMTPRRPGPTRKHYQPYAPPRDFAAYRS
IL-2 secretion (ELISA): 4.6 ng/mL
